Laboratory results taken from patent US20230203170A1 (DRAGONBOAT BIOPHARMACEUTICAL SHANGHAI, published 2023).

T1: full-length mouse CSF-1R (RefSeq ID NP_001032948) expressed on HEK293F cells (mouse, UniProt P09581 20-977)
T1 construct: whole, on cells
T1 sequence (looked up): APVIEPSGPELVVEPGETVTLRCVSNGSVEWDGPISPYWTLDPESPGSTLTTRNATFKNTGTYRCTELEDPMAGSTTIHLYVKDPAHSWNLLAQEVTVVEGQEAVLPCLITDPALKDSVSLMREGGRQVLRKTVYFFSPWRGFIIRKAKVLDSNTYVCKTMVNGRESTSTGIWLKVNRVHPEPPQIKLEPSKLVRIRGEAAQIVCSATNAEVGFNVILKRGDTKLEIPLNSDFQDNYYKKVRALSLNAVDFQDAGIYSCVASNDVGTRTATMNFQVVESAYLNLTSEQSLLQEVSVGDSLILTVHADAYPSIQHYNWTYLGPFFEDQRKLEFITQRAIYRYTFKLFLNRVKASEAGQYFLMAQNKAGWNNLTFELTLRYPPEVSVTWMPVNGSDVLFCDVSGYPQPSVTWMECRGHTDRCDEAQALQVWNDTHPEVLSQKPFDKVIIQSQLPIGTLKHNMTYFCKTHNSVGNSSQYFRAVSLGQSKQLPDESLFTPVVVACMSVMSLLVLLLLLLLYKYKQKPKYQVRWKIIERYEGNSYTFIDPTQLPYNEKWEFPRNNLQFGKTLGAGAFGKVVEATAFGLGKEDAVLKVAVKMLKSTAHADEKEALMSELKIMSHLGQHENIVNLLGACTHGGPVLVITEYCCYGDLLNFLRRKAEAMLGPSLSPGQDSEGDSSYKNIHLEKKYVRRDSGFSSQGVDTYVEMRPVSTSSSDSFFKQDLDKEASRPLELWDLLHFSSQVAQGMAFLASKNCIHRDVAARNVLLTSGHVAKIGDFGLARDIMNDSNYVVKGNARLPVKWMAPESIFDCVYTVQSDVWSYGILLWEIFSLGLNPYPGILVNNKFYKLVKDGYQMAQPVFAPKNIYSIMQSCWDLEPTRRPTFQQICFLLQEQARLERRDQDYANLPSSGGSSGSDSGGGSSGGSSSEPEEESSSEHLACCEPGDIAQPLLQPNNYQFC


Experiments:
[1] = target: T1, full-length mouse CSF-1R (RefSeq ID …); experiment: flow cytometry on HEK293F cells transiently expressing full-length mouse CSF-1R (IRES-EGFP vector), Alexa Fluor 647 anti-human Fc detection [Conti.]
Experimental: (§1) The specificities of the antibodies were also assessed against human, monkey and mouse CSF-1R that are transiently expressed on the surface of HEK293F cells (FIG. 1). Briefly, HEK293F cells were transfected with a plasmid expressing full-length human, monkey (RefSeq ID XP_015307616) or mouse (RefSeq ID NP_001032948) CSF-1R from a bicistronic IRES vector. EGFP was used to identify the transfected cells. After 40 hrs, the transfected cells were harvested and then washed once with 1% PBSA buffer (1% (w/v) BSA in 1×PBS). Cells were then incubated with various IgGs (each at 100 nM) for 1 hr at room temperature, washed once with pre-chilled 1% PBSA buffer, and incubated with Alexa Fluor® 647 conjugated mouse anti-human Fc antibodies for 30 min on ice. The cells were washed once prior to analysis by flow cytometry (Beckman® CytoFlex).

[2] = target: T2, human CSF1R-His (Acrobiosystem, CSR-H5228) (human, UniProt P07333 20-512, limits assumed); experiment: SPR Biacore T200; IgG captured by anti-human Fc, CSF1R-His as analyte, 1:1 fit
T2 construct: Bought protein; The catalogue number is printed only for the SPR assay; also called human CSF-1R protein; not shown: His tag
Description: The specific binding affinity and kinetics of antibodies against human CSF-1R protein were examined by surface plasmon resonance (SPR) analysis using a Biacore™ T200 instrument (GE, USA) according to the manufacturer’s guidelines. Anti-Human IgG (Fc) antibody (Sigma, I2136) was immobilized on CM5 chips according to the instructions of Amine Coupling kit (GE Biacore #BR-1000-50). The immobilized Anti-Human IgG (Fc) antibody was used to capture the antibodies. […] The running buffer used was 0.01 M HEPES, 0.15 M NaCl, 3 mM EDTA, 0.05% (v/v) surfactant P20, pH 7.4. Corresponding controls were conducted in each case using a blank flow cell with no protein captured for “background” subtraction. The association and dissociation curves were fitted to a 1:1 Langmuir binding model using Biacore T200 Evaluation Software (GE, USA) according to the manufacturer’s guidelines.

[3] = target: T1, full-length mouse CSF-1R (RefSeq ID …); experiment: flow cytometry on HEK293F cells transiently expressing full-length mouse CSF-1R (IRES-EGFP vector), Alexa Fluor 647 anti-human Fc detection
Experimental: as §1

[4] = target: T3, full-length human CSF-1R expressed on cells (human, UniProt P07333 20-972); experiment: flow cytometry on HEK293F cells transiently expressing full-length human CSF-1R (IRES-EGFP vector), IgG at 100 nM, Alexa Fluor 647 anti-human Fc detection
T3 construct: whole, on cells
Experimental: as §1

[5] = target: T1, full-length mouse CSF-1R (RefSeq ID …); experiment: flow cytometry on HEK293F cells transiently expressing full-length mouse CSF-1R (IRES-EGFP vector), IgG at 100 nM, Alexa Fluor 647 anti-human Fc detection
Experimental: as §1

[6] = target: T4, full-length monkey CSF-1R (RefSeq ID XP_015307616) expressed on HEK293F cells (monkey, UniProt A0A2K5WG90 20-976); experiment: flow cytometry on HEK293F cells transiently expressing full-length monkey CSF-1R (IRES-EGFP vector), IgG at 100 nM, Alexa Fluor 647 anti-human Fc detection
T4 sequence (A0A2K5WG90 entry or part of it limits assumed, form in doubt): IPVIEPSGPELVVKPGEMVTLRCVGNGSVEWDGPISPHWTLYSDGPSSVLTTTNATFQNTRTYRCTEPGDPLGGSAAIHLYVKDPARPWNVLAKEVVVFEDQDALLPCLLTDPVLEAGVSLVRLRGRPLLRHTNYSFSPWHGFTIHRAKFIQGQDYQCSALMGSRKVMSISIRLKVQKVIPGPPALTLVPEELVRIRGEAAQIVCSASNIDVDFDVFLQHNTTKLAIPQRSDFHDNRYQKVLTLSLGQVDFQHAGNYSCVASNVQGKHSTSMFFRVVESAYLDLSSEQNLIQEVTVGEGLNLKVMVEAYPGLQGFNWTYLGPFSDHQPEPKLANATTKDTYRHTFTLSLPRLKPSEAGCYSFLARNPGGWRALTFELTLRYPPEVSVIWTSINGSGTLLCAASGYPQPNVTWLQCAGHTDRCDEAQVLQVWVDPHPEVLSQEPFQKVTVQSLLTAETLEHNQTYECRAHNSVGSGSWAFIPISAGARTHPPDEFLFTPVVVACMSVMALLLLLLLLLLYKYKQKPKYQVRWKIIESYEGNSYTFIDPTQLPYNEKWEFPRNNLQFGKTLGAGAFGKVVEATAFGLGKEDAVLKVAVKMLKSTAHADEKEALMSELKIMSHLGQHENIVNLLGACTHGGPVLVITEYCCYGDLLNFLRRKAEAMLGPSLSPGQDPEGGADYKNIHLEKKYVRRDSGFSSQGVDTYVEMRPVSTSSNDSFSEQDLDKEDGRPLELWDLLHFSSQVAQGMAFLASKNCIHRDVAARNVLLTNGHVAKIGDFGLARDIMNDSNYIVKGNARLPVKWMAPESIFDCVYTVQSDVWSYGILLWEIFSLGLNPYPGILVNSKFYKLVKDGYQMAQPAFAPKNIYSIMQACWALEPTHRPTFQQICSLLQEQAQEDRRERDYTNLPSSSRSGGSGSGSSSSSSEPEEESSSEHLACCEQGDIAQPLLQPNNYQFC
Experimental: as §1

[7] = target: T3, full-length human CSF-1R expressed on …; experiment: flow cytometry on HEK293F cells transiently expressing full-length human CSF-1R (IRES-EGFP vector), IgG at 100 nM, Alexa Fluor 647 anti-human Fc detection [Conti.]
Experimental: as §1

[8] = target: T4, full-length monkey CSF-1R (RefSeq ID …); experiment: flow cytometry on HEK293F cells transiently expressing full-length monkey CSF-1R (IRES-EGFP vector), IgG at 100 nM, Alexa Fluor 647 anti-human Fc detection [Conti.]
Experimental: as §1

Row | Binder | binding result [1] | Kd [2] [nM] | binding result [3] | percent of cells in the upper right quadrant (APC Ab binding positive, FITC Ag display positive) [4] [%] | percent of cells in the upper right quadrant (APC Ab binding positive, FITC Ag display positive) [5] [%] | percent of cells in the upper right quadrant (APC Ab binding positive, FITC Ag display positive) [6] [%] | percent of cells in the upper right quadrant (APC Ab binding positive, FITC Ag display positive) [7] [%] | percent of cells in the upper right quadrant (APC Ab binding positive, FITC Ag display positive) [8] [%]
1 | TAC2188 (antibody, human IgG4, V domains shown) VH: QVQLVQSGAEVKKPGASVKVSCKASGYTFTSYDISWVRQAPGQGLEWMGVIWTDGGTNYAQKLQGRVTMTTDTSTSTAYMELRSLRSDDTAVYYCARDQRLYFDVWGQGTTVTVSS VL: DIQMTQSPSSLSASVGDRVTITCRASEDVNTYVSWYQQKPGKAPKLLIYAASNRYTGVPSRFSGSGSGTDFTLTISSLQPEDFATYYCQQSFSYPTFGQGTKLEIK | no binding (tested: 100 nM) | – | – | – | – | – | – | –
2 | TY21375 (antibody, human IgG4, V domains shown, Human IgG4 isotype with S241P mutation) VH: EVQLVESGGGLVQPGGSLRLSCAASGFTFSDYAIHWVRQAPGKGLEWVSVISGYGGSTYYADSVKGRFTISRDNSKNTLYLQLNSLRAEDTAVYYCARSGGGGYYFDYWGQGTLVTVSS VL: DIQLTQSPSSLSASVGDRVTITCRASQGIRSYLAWYQQKPGKAPKLLIYAASSLQSGVPSRFSGSGSGTDFTLTISSLQPEDFATYYCQQSYHWPLTFGQGTKVEIK | – | 35.5 | no binding (tested: 100 nM) | 43.8 | 0.081 | 32.6 | – | –
3 | TAC2205 (antibody, human IgG4, V domains shown) VH: QVQLVQSGAEVKKPGSSVKVSCKASGYTFTDNYMIWVRQAPGQGLEWMGDINPYNGGTTFNQKFKGRVTITADKSTSTAYMELSSLRSEDTAVYYCARESPYFSNLYVMDYWGQGTLVTVSS VL: EIVLTQSPATLSLSPGERATLSCKASQSVDYDGDNYMNWYQQKPGQAPRLLIYAASNLESGIPARFSGSGSGTDFTLTISSLEPEDFAVYYCHLSNEDLSTFGGGTKVEIK | no binding (tested: 100 nM) | 0.67 | – | – | – | – | – | –
4 | TY21373 (antibody, human IgG4, V domains shown, Human IgG4 isotype with S241P mutation) VH: EVQLVESGGGLVQPGGSLRLSCAASGYSISSGYYWGWIRQAPGKGLEWVSSISGYGSSTYYADSVKGRFTISRDNSKNTLYLQLNSLRAEDTAVYYCARGAYGYFDYWGQGTLVTVSS VL: DIQLTQSPSSLSASVGDRVTITCPASSSVSYIHWYQQKPGKAPKLLIYDASNLETGVPSRFSGSGSGTDFTLTISSLQPEDFATYYCQQYYPWPWTFGQGTKVEIK | – | 23.6 | no binding (tested: 100 nM) | 37.4 | 0.77 | – | – | –

Next, values leading:

Row | binding result [1] | Kd [2] [nM] | binding result [3] | percent of cells in the upper right quadrant (APC Ab binding positive, FITC Ag display positive) [4] [%] | percent of cells in the upper right quadrant (APC Ab binding positive, FITC Ag display positive) [5] [%] | percent of cells in the upper right quadrant (APC Ab binding positive, FITC Ag display positive) [6] [%] | percent of cells in the upper right quadrant (APC Ab binding positive, FITC Ag display positive) [7] [%] | percent of cells in the upper right quadrant (APC Ab binding positive, FITC Ag display positive) [8] [%] | Binder
5 | no binding (tested: 100 nM) | 9.86 | – | – | – | – | 41.3 | 31.3 | TY21428 (antibody, human IgG4, V domains shown, Human IgG4 isotype with S241P mutation) VH: EVQLVESGGGLVQPGGSLRLSCAASGFTFSNYGIHWVRQAPGKGLEWVSVISGYGGSTYYADSVKGRFTISRDNSKNTLYLQLNSLRAEDTAVYYCARRGLTSTYFDYWGQGTLVTVSS VL: DIQLTQSPSSLSASVGDRVTITCRASQSVGSWLAWYQQKPGKAPKLLIYDASNLETGVPSRFSGSGSGTDFTLTISSLQPEDFATYYCQQSYPIPPTFGQGTKVEIK
6 | – | 0.6 | no binding (tested: 100 nM) | 40.2 | 3.71 | 29.5 | – | – | TY21371 (antibody, V domains shown, Human IgG4 isotype with S241P mutation (Uniprot P01861); Its IgG1 format is called TY22179 (used only in PK/PD)) VH: EVQLVESGGGLVQPGGSLRLSCAASGFTFSGYAIHWVRQAPGKGLEWVSVISGYGSSTYYADSVKGRFTISRDNSKNTLYLQLNSLRAEDTAVYYCARDPGVGGFDVWGQGTLVTVSS VL: DIQLTQSPSSLSASVGDRVTITCRASQSVRRRFLAWYQQKPGKAPKLLIYDASSLESGVPSRFSGSGSGTDFTLTISSLQPEDFATYYCQQYYPIPRTFGQGTKVEIK
7 | no binding (tested: 100 nM) | 3.51 | – | – | – | – | – | – | TY21433 (antibody, human IgG4, V domains shown, Human IgG4 isotype with S241P mutation) VH: EVQLVESGGGLVQPGGSLRLSCAASGFTFSNYAIHWVRQAPGKGLEWVSVISGYGSTTYYADSVKGRFTISRDNSKNTLYLQLNSLRAEDTAVYYCARSTVATPFAYWGQGTLVTVSS VL: DIQLTQSPSSLSASVGDRVTITCKASQDVRTAVAWYQQKPGKAPKLLIYAASTLQSGVPSRFSGSGSGTDFTLTISSLQPEDFATYYCQQSYPWPWTFGQGTKVEIK
8 | – | 1.61 | no binding (tested: 100 nM) | 37.4 | – | 33.7 | – | – | TY21372 (antibody, human IgG4, V domains shown, Human IgG4 isotype with S241P mutation) VH: EVQLVESGGGLVQPGGSLRLSCAASGYTFSDYAIHWVRQAPGKGLEWVSVISGYGSTTYYADSVKGRFTISRDNSKNTLYLQLNSLRAEDTAVYYCARASSYGGFDYWGQGTLVTVSS VL: DIQLTQSPSSLSASVGDRVTITCRASQDVSTAVAWYQQKPGKAPKLLIYDASNRATGIPSRFSGSGSGTDFTLTISSLQPEDFATYYCQQYYPWPWTFGQGTKVEIK
9 | no binding (tested: 100 nM) | 3.18 | – | – | – | – | – | 34.2 | TY21429 (antibody, human IgG4, V domains shown, Human IgG4 isotype with S241P mutation) VH: EVQLVESGGGLVQPGGSLRLSCAASGYTFSNYAIHWVRQAPGKGLEWVSAISGTGSSTYYADSVKGRFTISRDNSKNTLYLQLNSLRAEDTAVYYCARHSHSRYAFDYWGQGTLVTVSS VL: DIQLTQSPSSLSASVGDRVTITCRASHVRTAVAWYQQKPGKAPKLLIYDASNLETGVPSRFSGSGSGTDFTLTISSLQPEDFATYYCQQYYPWPWTFGQGTKVEIK
